Our source for the amount of globulomers (densitometry of the 6E10 western blot) (% of the control) values is patent US20100022459A1.

The assay deals with β-amyloid1-42 (UniProt P05067). The assay can be described thus: cell-based or functional assay.

Regarding D-Trp-Aib (peptide), the amount of globulomers (densitometry of the 6E10 western blot) (% of the control) was 45.
